Laboratory results reported in PMC5805785, “Site-specific phosphorylation of TRANSPARENT TESTA GLABRA1 mediates carbon partitioning in Arabidopsis seeds” (Nature Communications, 2018).
Residue numbers refer to the chain shown, from its start. One block for each molecule: values may come before it.

Assays:
[1] = biological target: T1, MBP-TT2 (Arabidopsis thaliana) (UniProt Q9FJA2); test: EMSA; conditions: LightShift Chemiluminescent EMSA kit (Pierce); buffer, salt, pH and temperature not stated
T1 sequence: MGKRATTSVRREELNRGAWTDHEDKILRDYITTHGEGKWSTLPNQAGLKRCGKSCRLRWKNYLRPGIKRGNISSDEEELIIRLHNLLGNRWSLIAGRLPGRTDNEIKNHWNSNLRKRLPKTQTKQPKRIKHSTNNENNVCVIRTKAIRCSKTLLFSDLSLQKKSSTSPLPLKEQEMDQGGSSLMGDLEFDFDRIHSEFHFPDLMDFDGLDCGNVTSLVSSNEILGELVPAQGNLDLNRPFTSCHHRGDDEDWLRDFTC

[2] = biological target: T1, MBP-TT2 (Arabidopsis thaliana); test: competition; conditions: LightShift Chemiluminescent EMSA kit (Pierce); buffer, salt, pH and temperature not stated
[3] = biological target: T2, MBP-TT2;MBP-TTG1 (Arabidopsis thaliana;Arabidopsis thaliana) (UniProt Q9FJA2+Q9XGN1); test: EMSA; conditions: LightShift Chemiluminescent EMSA kit (Pierce); buffer, salt, pH and temperature not stated
T2 sequence 1: T1 sequence
T2 sequence 2: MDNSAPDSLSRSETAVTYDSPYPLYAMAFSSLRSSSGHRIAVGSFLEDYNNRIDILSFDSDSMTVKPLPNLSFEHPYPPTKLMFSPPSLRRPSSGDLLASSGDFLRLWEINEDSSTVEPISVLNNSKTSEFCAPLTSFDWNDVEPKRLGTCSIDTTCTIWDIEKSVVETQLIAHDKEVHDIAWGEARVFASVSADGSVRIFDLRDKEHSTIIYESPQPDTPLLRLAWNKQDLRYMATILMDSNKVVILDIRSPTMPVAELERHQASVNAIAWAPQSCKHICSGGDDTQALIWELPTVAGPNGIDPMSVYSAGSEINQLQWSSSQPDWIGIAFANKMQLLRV

MBP-TTG1^S215A = biological target: T3, MBP-TTG1^S215A (Arabidopsis thaliana, UniProt Q9XGN1 1-341, S215A); test: pull-down; MBP, MBP-TTG1, MBP-TTG1^S215E and MBP-TTG1^S215A on amylose beads as baits; TT2-His as prey, detected with anti-His; conditions: both partners purified
T3 construct: TRANSPARENT TESTA GLABRA1 (TTG1), Arabidopsis thaliana; mutated cDNA cloned into pMAL-c2x; source: E. coli Rossetta (DE3), soluble fusion protein immobilized on amylose beads
T3 sequence (looked up): T2 sequence 2 with S215A

[4] = biological target: T4, MBP-TTG1 (TRANSPARENT TESTA GLABRA1) (Arabidopsis thaliana, UniProt Q9XGN1 1-341); test: as above; conditions: both partners purified
T4 construct: TRANSPARENT TESTA GLABRA1 (TTG1), Arabidopsis thaliana, WD40 repeat protein; cDNA cloned into pMAL-c2x; also called recombinant MBP-TTG1; source: E. coli Rossetta (DE3), IPTG-induced, soluble fusion protein on amylose resin (methods); called 'in vitro-translated' in the results for the GST pull-down
T4 sequence (looked up): T2 sequence 2

[5] = biological target: T4, MBP-TTG1 (TRANSPARENT TESTA GLABRA1); test: native gel or EMSA; EMSA supershift: recombinant MBP-TT2 and MBP-TTG1 incubated together with the biotinylated native GL2 probe (AC-rich motif); conditions: both partners purified

Molecule: ATAATATATAAGGAAGAAGGAGTGCGAGGAGAAGAGGGAAGAGATCATAATTAAGCAAAGAAGCTAGCTAGGGACAGGATTTGTATGTCAATGGCCGTCGACATGTCTTCAAAAAAAAAAAAAAAAGACTTTTTCTCCTCTCCAGCCCTCTCTCTATCTCTCGTATACTACTCTCTCTTTTCTACATACATGTACTTGCTAGCTCTCACATAAACATATATT (double strand) [GL2 mutated probe]
binding [1]: no binding

Molecule: ATAATATATAAGGAAGAAGGAGTGCGAGGAGAAGAGGGAAGAGATCATAATTAAGCAAAGAAGCTAGCTAGGGACAGGATTTGTATGTCAATGGCCGTCGACATGTCTTCCAAACAACCCACCAAAGACTTTTTCTCCTCTCCAGCCCTCTCTCTATCTCTCGTATACTACTCTCTCTTTTCTACATACATGTACTTGCTAGCTCTCACATAAACATATATT (double strand) [GL2 native competitor]
binding [2]: binds

Molecule: ATAATATATAAGGAAGAAGGAGTGCGAGGAGAAGAGGGAAGAGATCATAATTAAGCAAAGAAGCTAGCTAGGGACAGGATTTGTATGTCAATGGCCGTCGACATGTCTTCCAAACAACCCACCAAAGACTTTTTCTCCTCTCCAGCCCTCTCTCTATCTCTCGTATACTACTCTCTCTTTTCTACATACATGTACTTGCTAGCTCTCACATAAACATATATT (double strand) [GL2 native probe]
binding [1]: binds
binding [3]: binds

binding result (MBP-TTG1^S215A): binds
binding result [4]: binds
B1: TT2-His (natural protein, Arabidopsis thaliana, UniProt Q9FJA2 1-258, looked up)
chain: T1 sequence
notes: TRANSPARENT TESTA2 (TT2; MYB123), Arabidopsis thaliana; cDNA cloned into pET28a; also called MYB123; source: E. coli Rossetta (DE3), IPTG-induced, soluble fusion protein

binding result [5]: binds
B2: MBP-TT2 (natural protein, Arabidopsis thaliana, UniProt Q9FJA2 1-258, looked up)
chain: T1 sequence
notes: TRANSPARENT TESTA2 (TT2; MYB123), Arabidopsis thaliana; cDNA cloned into pMAL-c2x; also called MYB123; source: E. coli Rossetta (DE3), recombinant protein produced as for the pull-down assay
